{
  "source": "patent US11078465B2",
  "about": "“Alcohol dehydrogenase mutant and application thereof in synthesis of diaryl chiral alcohols” (Jiangnan University, priority 2018, dated 2021)",
  "molecules": {"B1": {"name": "E214S/S237C: serine for glutamate at position 214 and cysteine for serine at position 237 of SEQ ID No. 2 (protein)", "chain": "MSVLISGASGYIAKHIVRVLLEQNYKVIGTVRSQDKADKLLKQYNNPNLSYEIVPEIANLDAFDDIFKKHGKEIKYVIHAASPVNFGAKDLEKDLVIPAINGTKNMFEAIKKYAPDTVERVVMTASYASIMTPHRQNDPTLTLDEETWNPVTEENAYENVFTAYCASKTFAEKEAWKFVKENSDAVKFKLTTIHPSFVFGPQNFDEDVTKKLNSTCEIINGLLHAPFDTKVEKTHFCQFIDVRDVAKTHVLGFQKDELINQRLLLCNGAFSQQDIVNVFNEDFPELKGQFPPEDKDTDLNKGVTGCKIDNEKTKKLLAFEFTPFHKTIHDTVYQILHKEGRV", "modifications": "Protein translated from synthetic DNA"}},
  "assay_type_in_all_cases": "biochemical",
  "key": {"[1]": {"assay": "Stereoselectivity on different substrates", "settings": "configuration in brackets", "description": "(§1) In an embodiment of the present disclosure, a chromatographic analysis method is as follows: 100 μL of reactant liquid is taken, 500 μL of ethyl acetate is added, shaking is performed for 1-2 min, centrifugation is performed at 12,000 rpm for 2-5 min, supernatant liquid is taken into a centrifuge tube, after an organic phase naturally volatilizes completely, 500 μL of chromatographically pure ethanol is added, and chiral liquid chromatography and gas chromatography are performed to analyze the transformation rate and the ee value.\n(§2) Method for determining optical purity ee:\n(§3) As: molar concentration of (S)-CPMA obtained by liquid chromatography; and AR: molar concentration of (R)-CPMA obtained by liquid chromatography.\n(§4) The reduction on prochiral carbonyl compounds by the alcohol dehydrogenase mutants obtained in Example 3 was studied. The pro-chiral carbonyl compounds include (4-chlorophenyl)-(pyridin-2-yl)-methanone (CPMK), phenyl-(pyridin-2-yl)-methanone, (4-chlorophenyl)-(phenyl)-methanone, (4-bromophenyl)(phenyl)methanone, (4-fluorophenyl)(phenyl)methanone, (4-methoxyphenyl)-(phenyl)-methanone, (4-nitrophenyl)(phenyl)methanone, 1-(pyridin-2-yl)ethanone, acetophenone, 4′-Chloroacetophenone, 4-chlorophenacyl chloride, ethyl 2-oxo-4-phenylbutanoate (OPBE), ethyl 4-chloro-3-oxobutanoate, and methyl 2-oxo-2-phenylacetate."}, "[2]": {"assay": "Kinetic analysis of alcohol dehydrogenase and mutants (NADPH oxidation, 340 nm, double reciprocal curve)", "settings": "substrate CPMK", "how_it_was_run": "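His-tagged recombinant KpADH (wild type or mutant) purified by nickel affinity, desalted into Tris-HCl pH 7.0. Activity measured at 30° C in 100 mM sodium phosphate pH 7.0 with 1.0 mM NADPH and 1.0 mM CPMK by 340 nm NADPH absorbance decrease; kinetic parameters from double reciprocal plots over varied substrate and coenzyme concentrations.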"}, "[3]": {"assay": "Asymmetric reduction in 20 mL biocatalytic system, conversion", "description": "as §1\nThe pure (R)-CPMA were recrystallized from ethyl acetate at 4° C. and gave 99.9% optical purity. […] Besides, the conversion cannot reach 100% with 24 h in the asymmetric reduction of (4-bromophenyl)-(phenyl)-methanone and p-nitrobenzophenone due to the low enzyme activity."}, "[4]": {"assay": "Stereoselectivity (ee) of CPMK reduction, chiral liquid chromatography", "how_it_was_run": "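Reaction mixture extracted with ethyl acetate, solvent evaporated, residue taken up in ethanol. Chiral LC and GC give conversion and ee, with ee computed from LC molar concentrations of (S)- and (R)-CPMA.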"}, "[5]": {"assay": "Stereoselectivity on different substrates", "settings": "for Stereoselectivity (ee): configuration in brackets", "description": "as §1, §2, §3, §4\nAll the products above were recrystallized from ethyl acetate and gave more than 99.9% optical purity."}, "[6]": {"assay": "Substrate specificity, specific activity", "description": "Adopting a total reaction system of 200 μL, including: 1.0 mM NADPH, 1.0 mM substrate CPMK and sodium phosphate buffer (PBS, 100 mM, pH 7.0), fully and evenly mixing, maintaining at 30° C. for 2 min, adding an appropriate amount of enzyme solution, and detecting the change in light absorption at 340 nm.\nThe enzyme activity was calculated by the following formula: Enzyme activity (U)=EW×V×10^3/(6220×I);\nin the formula, EW is the change in absorbance at 340 nm in 1 min; V is the volume of a reaction solution in mL; 6220 is the molar extinction coefficient of NADPH in L/mol·cm); and 1 is the optical path distance in cm. One activity unit (U) corresponds to the amount of enzyme required to catalyze the oxidation of 1 μmol NADPH per minute under the above conditions.\nas §4"}},
  "note": "“Also recorded” adds a separate entry of the source.",
  "data": [
    {"molecule": "B1", "values": [
      {"measurement": "Stereoselectivity (ee)", "setting": "[1]; substrate [drawing 13]", "result": "52.6 (R)"},
      {"measurement": "Stereoselectivity (ee)", "setting": "[1]; substrate [drawing 14], likely CPMK (values partly match Table 4)", "result": "52.0 (S)"},
      {"measurement": "Stereoselectivity (ee)", "setting": "[1]; substrate [drawing 15]", "result": "88.1 (R)"},
      {"measurement": "Stereoselectivity (ee)", "setting": "[1]; substrate [drawing 18]", "result": "92.3 (R)"},
      {"measurement": "Kcat", "setting": "[2]", "result": "8.33 ± 0.17", "unit": "s⁻¹"},
      {"measurement": "Km", "setting": "[2]", "result": "400 ± 20", "unit": "µM"},
      {"measurement": "Vmax", "setting": "[2]", "result": "12.5 ± 0.16", "unit": "µM/min/mg"},
      {"measurement": "Conversion rate", "setting": "[3]; 4-chlorobenzoyl chloride 100 mM, 1 h", "result": 66, "unit": "%"},
      {"measurement": "Conversion rate", "setting": "[3]; 4-chlorobenzoyl chloride 100 mM, 2 h", "result": 79, "unit": "%"},
      {"measurement": "Conversion rate", "setting": "[3]; 4-chlorobenzoyl chloride 100 mM, 3 h", "result": 90, "unit": "%"},
      {"measurement": "Conversion rate", "setting": "[3]; 4-chlorobenzoyl chloride 100 mM, 4 h", "result": 98, "unit": "%"},
      {"measurement": "Conversion rate", "setting": "[3]; 4-chlorobenzoyl chloride 100 mM, 6 h", "result": 99.2, "unit": "%"},
      {"measurement": "Conversion rate", "setting": "[3]; 4-chlorobenzoyl chloride 100 mM, 8 h", "result": 99.8, "unit": "%"},
      {"measurement": "Conversion rate", "setting": "[3]; 4-chlorobenzoyl chloride 100 mM, 12 h", "result": ">99.9", "unit": "%"},
      {"measurement": "Conversion rate", "setting": "[3]; 4-chlorobenzoyl chloride 100 mM, 24 h", "result": ">99.9", "unit": "%"},
      {"measurement": "Conversion rate", "setting": "[3]; 4-chlorobenzoyl chloride 200 mM, 1 h", "result": 55, "unit": "%"},
      {"measurement": "Conversion rate", "setting": "[3]; 4-chlorobenzoyl chloride 200 mM, 2 h", "result": 69, "unit": "%"},
      {"measurement": "Conversion rate", "setting": "[3]; 4-chlorobenzoyl chloride 200 mM, 3 h", "result": 76, "unit": "%"},
      {"measurement": "Conversion rate", "setting": "[3]; 4-chlorobenzoyl chloride 200 mM, 4 h", "result": 85.9, "unit": "%"},
      {"measurement": "Conversion rate", "setting": "[3]; 4-chlorobenzoyl chloride 200 mM, 6 h", "result": 96.4, "unit": "%"},
      {"measurement": "Conversion rate", "setting": "[3]; 4-chlorobenzoyl chloride 200 mM, 8 h", "result": 99.1, "unit": "%"},
      {"measurement": "Conversion rate", "setting": "[3]; 4-chlorobenzoyl chloride 200 mM, 12 h", "result": 99.8, "unit": "%"},
      {"measurement": "Conversion rate", "setting": "[3]; 4-chlorobenzoyl chloride 200 mM, 24 h", "result": ">99.9", "unit": "%"},
      {"measurement": "Conversion rate", "setting": "[3]; 4-chlorobenzoyl chloride 500 mM, 1 h", "result": 35.6, "unit": "%"},
      {"measurement": "Conversion rate", "setting": "[3]; 4-chlorobenzoyl chloride 500 mM, 2 h", "result": 49.6, "unit": "%"},
      {"measurement": "Conversion rate", "setting": "[3]; 4-chlorobenzoyl chloride 500 mM, 3 h", "result": 66.4, "unit": "%"},
      {"measurement": "Conversion rate", "setting": "[3]; 4-chlorobenzoyl chloride 500 mM, 4 h", "result": 79.3, "unit": "%"},
      {"measurement": "Conversion rate", "setting": "[3]; 4-chlorobenzoyl chloride 500 mM, 6 h", "result": 89.0, "unit": "%"},
      {"measurement": "Conversion rate", "setting": "[3]; 4-chlorobenzoyl chloride 500 mM, 8 h", "result": 95.6, "unit": "%"},
      {"measurement": "Conversion rate", "setting": "[3]; 4-chlorobenzoyl chloride 500 mM, 12 h", "result": 96.9, "unit": "%"},
      {"measurement": "Conversion rate", "setting": "[3]; 4-chlorobenzoyl chloride 500 mM, 24 h", "result": 98.9, "unit": "%"},
      {"measurement": "configuration of product / stereoselectivity in words", "setting": "[4]", "result": "inversion from the R configuration to the S configuration; also recorded: (S)-CPMA"},
      {"measurement": "e.e.", "setting": "[4]; product configuration in brackets", "result": "52.0 (S)"},
      {"measurement": "ee value", "setting": "[5]; substrate 4-chlorobenzoyl chloride", "result": 99.6, "unit": "%"},
      {"measurement": "Stereoselectivity (ee)", "setting": "[5]; substrate [drawing 10], acetophenone", "result": "98.9 (R)"},
      {"measurement": "Stereoselectivity (ee)", "setting": "[5]; substrate [drawing 11], 4-chloroacetophenone", "result": "95.6 (R)"},
      {"measurement": "Stereoselectivity (ee)", "setting": "[5]; substrate [drawing 12], 4-chlorobenzoyl chloride", "result": "99.6 (R)"},
      {"measurement": "Stereoselectivity (ee)", "setting": "[5]; substrate [drawing 16], (4-bromophenyl)-(phenyl)-methanone", "result": "90.6 (R)"},
      {"measurement": "Stereoselectivity (ee)", "setting": "[5]; substrate [drawing 17], p-nitrobenzophenone", "result": "91.9 (R)"},
      {"measurement": "specific activity", "setting": "[6]; substrate [drawing 1]", "result": 0.19, "unit": "U/mg"},
      {"measurement": "specific activity", "setting": "[6]; substrate [drawing 2]", "result": 0.09, "unit": "U/mg"},
      {"measurement": "specific activity", "setting": "[6]; substrate [drawing 3]", "result": 0.25, "unit": "U/mg"},
      {"measurement": "specific activity", "setting": "[6]; substrate [drawing 4]", "result": 5.69, "unit": "U/mg"},
      {"measurement": "specific activity", "setting": "[6]; substrate [drawing 5]", "result": 2.55, "unit": "U/mg"},
      {"measurement": "specific activity", "setting": "[6]; substrate [drawing 6], 4-chlorophenacyl chloride", "result": 5.96, "unit": "U/mg"},
      {"measurement": "specific activity", "setting": "[6]; substrate [drawing 7]", "result": 15.58, "unit": "U/mg"},
      {"measurement": "specific activity", "setting": "[6]; substrate [drawing 8]", "result": 30.69, "unit": "U/mg"},
      {"measurement": "specific activity", "setting": "[6]; substrate [drawing 9], ethyl 4-chloro-3-oxobutanoate", "result": 1.59, "unit": "U/mg"}
    ]}
  ]
}
